Read-outs that look alike come from different tables or passages of the source. Some results are limits rather than exact numbers.

Data on one substance can be found in patent US9492315B2, “Implantable therapeutic device” (ForSight Vision4, Inc., priority 2010, dated 2016).

Data set [1] can be described thus: Determined concentration profiles of Lucentis/ranibizumab in the vitreous humor for injections into the device or bolus (FIGS. 19B-19T, 32A-32E, 37). On the set-up: species or system human. To be noted: parameter used for FIGS. 19K to 19P, half-life 9 days. From the text: The therapeutic device 100 can be tuned to deliver a target therapeutic concentration profile based on the volume of formulation injected into the device. The injected volume may comprise a substantially fixed volume, for example within about +/−30% of an intended predetermined target volume. The volume of the reservoir can be sized with the release rate index so as to release the therapeutic agent for an extended time substantially greater than the treatment time of a corresponding bolus injection. The device can also be tuned to release the therapeutic agent based on the half life of the therapeutic agent in the eye. The device volume and release rate index comprise parameters that can be tuned together based on the volume of formulation injected and the half life of the therapeutic agent in the eye. The following equations can be used to determine therapeutic device parameters suitable for tuning the device. Rate=Vr(dCr/dt)=−D(PA/TL)Cr where Rate=Rate of release of therapeutic agent from device Cr=concentration of therapeutic agent in reservoir Vr=volume of reservoir D=Diffusion constant PA/TL=RRI P=porosity A=area T=tortuosity=F=channel parameter. […]
These concentration profiles were determined with modeling and calculations as described herein. […]

Data set [2] can be described thus: Calculations of Lucentis concentrations in the vitreous, monkey model (bolus injections and device Simulations 1-5). To be noted: parameter applied in Simulations 1-5 (column = simulation). From the text:
A model can be derived to describe the release rate as a function of time by relating the change of concentration in the reservoir to the release rate described above. This model assumes a solution of therapeutic agent where the concentration in the reservoir is uniform. In addition, the concentration in the receiving fluid or vitreous is considered negligible (cV=0). Solving the differential equation and rearrangement yields the following equations describing the concentration in the reservoir as a function of time, t, and volume of the reservoir, VR, for release of a therapeutic agent from a solution in a reservoir though a porous structure. cR=cR0exp((−DPA/FLVR)t) and Cumulative Release=1−cR/cR0
A bolus injection into the vitreous may be modeled as a single exponential with rate constant, k=0.693/half-life and a cmax=dose/Vv where Vv is the vitreous volume. […] The vitreous volume is approximately 1.5 mL for the rabbit and monkey and 4.5 mL for the human eye. […] This concentration decays to a vitreous concentration of 0.1 ug/mL after about a month.
For devices with extended release, the concentration in the vitreous changes slowly with time. […]
The first column used the measured Cmax (Gaudreault et al.) while the second used a calculated Cmax based on the dose and volume of the vitreous.

The conditions of data set [3]: rabbit and monkey (Gaudreault et al.), cited from earlier work.
Data set [4] deals with retinal thickness / lesion size in wet AMD. The data set is described as follows: Low dose Lucentis MIC study in wet AMD patients with OCT imaging (Example 18). Type of data set: in vivo, human. From the text:
OCT (Optical Coherence Tomography) imaging was used to assess the condition of the region of the macula at the back surface of the treated eye. The OCT technique relies on the measurement of certain properties of light (e.g. echo time, intensity of reflection) that has been directed at the area of study and can measure very small amounts of reflected light. Because these cellular features are essentially transparent it is possible to use OCT methodology to generate three dimensional representations of the area.
The regions of interest were analyzed with a two dimensional representation of the cross section of the retinal wall at one longitudinal scan location of the OCT image. In these “OCT scan” images is it possible to interrogate very local areas of interest more specifically. The OCT scans were carefully selected to directly compare the thickness and anatomical structure of specific sites within a lesion, pre and post treatment, for the purpose of assessing the effect of injected drug including a reduction in sub-retinal fluid.
The OCT images were measured the day after injection and at 2-3 days post injection.
Further studies can be conducted by one or ordinary skill in the based on the teachings described herein to determine empirically the MIC for a sustained release device and cumulative effect of the drug over the time of release.

For data set [5] the following is noted: humans (Lucentis package insert); cited from earlier work.
In data set [6] the test system is Grade IV choroidal neovascularization (CNV) lesions. To be noted: intravitreal injection, all doses tested, cynomolgus monkeys, laser photocoagulation model; cited from earlier work.

With ranibizumab [Lucentis], the “Rate constant, k” value in data set [1] was 0.077 day⁻¹; in data set [2], 0.264 day⁻¹. Moreover, the entries for the “half-life in the vitreous” value in data set [3], in data set [3] (listed as ranibizumab) and in data set [5] were “two to four”, “approximately 3 days” and approximately 220 h, respectively. For the same substance, the “Treatment Effect Observed?” value in data set [4] (decrease in size of the lesion on OCT after low dose bolus, patient # in r2, dose in r4) is “Yes”. Besides, in data set [4] (human patients, wet AMD), the “MIC for a sustained release device” value was not above 1 ug per ml. Besides, the “development of Grade IV CNV lesions” value in data set [6] was “completely inhibited”.
